From US20140087995A1 (published 2014)
Numbered stars: 1 amine (or outer) side, 2 acyl side, 3 side chain; on linkers, the order of the positions; unused ones are H or OH. Bridge positions count the residues as written; N and C are the ends. Side chains are listed from the residue outwards. Ends that are not written are not given here. * marks the point of attachment. C20 diacid = O=C(O)CCCCCCCCCCCCCCCCCCC(=O)*; γGlu = O=C(O)[C@H](CCC(=O)[*:2])N[*:1]

Key:
[1] = biological target: T1, human amylin receptor (amylin 3(a) receptor: human calcitonin receptor co-expressed with RAMP-3) (human, UniProt P30988 25-474; O60896 24-148); experiment: SPA competition binding, membranes of Amylin 3(a)/CRE-luc BHK cells, displacement of 125I-rat amylin (Assay V)
T1 construct: whole, on cells; functional assay (Assay IIa) used the whole cells; also called hAmylin-R; hAmylinR
T1 sequence (looked up) 1: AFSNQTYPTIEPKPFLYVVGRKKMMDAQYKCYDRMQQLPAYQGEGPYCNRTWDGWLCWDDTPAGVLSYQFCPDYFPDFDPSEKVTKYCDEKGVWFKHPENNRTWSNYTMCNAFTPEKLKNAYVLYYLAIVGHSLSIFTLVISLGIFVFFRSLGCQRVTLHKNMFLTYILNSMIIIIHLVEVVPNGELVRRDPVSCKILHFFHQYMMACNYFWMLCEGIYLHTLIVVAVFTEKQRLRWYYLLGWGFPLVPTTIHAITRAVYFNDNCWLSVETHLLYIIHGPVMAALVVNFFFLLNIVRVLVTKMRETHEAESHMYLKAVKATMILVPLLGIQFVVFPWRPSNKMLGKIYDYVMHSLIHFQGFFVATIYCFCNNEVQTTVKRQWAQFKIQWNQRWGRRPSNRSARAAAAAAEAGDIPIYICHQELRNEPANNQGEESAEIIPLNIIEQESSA
T1 sequence (looked up) 2: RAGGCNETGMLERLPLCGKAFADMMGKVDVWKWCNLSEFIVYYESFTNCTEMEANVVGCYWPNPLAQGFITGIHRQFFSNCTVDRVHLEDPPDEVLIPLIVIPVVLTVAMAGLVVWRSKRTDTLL
Summary of the method: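 SPA beads + BHK amylin 3(a)/CRE-luc membranes, 35 ng/μL final; buffer 50 mM Hepes pH 7.4, 1 mM CaCl2, 5 mM MgCl₂, 0.1% OA, 0.02% Tween20. 120 min, 25° C, shaken; scintillation count. IC₅₀ by one-site binding competition fit, taken as receptor affinity.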

[2] = biological target: T1, human amylin receptor (amylin 3(a) …); experiment: cell-based or functional assay
[3] = biological target: T2, human calcitonin receptor (human, UniProt P30988 25-474); experiment: cell-based or functional assay
T2 sequence (looked up): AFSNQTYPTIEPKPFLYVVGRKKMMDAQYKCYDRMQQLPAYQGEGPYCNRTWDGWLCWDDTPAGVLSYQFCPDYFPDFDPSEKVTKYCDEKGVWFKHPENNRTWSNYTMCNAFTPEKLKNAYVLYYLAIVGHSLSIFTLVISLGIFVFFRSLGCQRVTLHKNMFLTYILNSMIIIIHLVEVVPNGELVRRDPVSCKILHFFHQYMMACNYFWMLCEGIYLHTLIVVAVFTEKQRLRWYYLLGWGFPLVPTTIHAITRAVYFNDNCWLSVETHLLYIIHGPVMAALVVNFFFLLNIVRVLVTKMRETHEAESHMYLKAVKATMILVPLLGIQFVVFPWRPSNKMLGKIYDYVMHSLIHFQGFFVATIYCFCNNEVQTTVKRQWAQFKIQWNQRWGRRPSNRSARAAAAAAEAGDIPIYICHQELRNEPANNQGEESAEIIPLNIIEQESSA

| Binder | IC50 [1] [nM] | hAmylin-R funct. EC50 (pM), CRE-luciferase reporter in BHK amylin 3(a) receptor cells [2] [pM] | Ratio hCT/hAmylin funct. (hCTR EC50 against hAmylin-R EC50) [3] | hCTR funct. EC50 (pM), CRE-luciferase reporter in BHK calcitonin (a) receptor cells [3] [pM] |
| --- | --- | --- | --- | --- |
| K([γGlu-γGlu-C20 diacid])CNTATCATQRLAEFLRHSSPNFGAIPSSTNVGPETP-NH2 (disulfide 2-7 (inferred), Synthetic acylated analogue of human amylin) | 0.533 | 132 | 0.8 | 102 |
| K([γGlu-C20 diacid])CNTATCATQRLAEFLRHSSPNFGAIPSSTNVGSHTY-NH2 (disulfide 2-7 (inferred), Synthetic acylated analogue of human amylin) | 0.992 | 425 | 13.1 | 5580 |
| K([γGlu-γGlu-C20 diacid])CNTATCATQRLAEFLRHSSPNFGAIPSSTNVGPNTF-NH2 (disulfide 2-7 (inferred), Synthetic acylated analogue of human amylin) | 0.152 | 216 | 9.9 | 2140 |
| K([γGlu-γGlu-C20 diacid])CNTATCATQRLAEFLRHSSNNPGAILSSTNVGPETY-NH2 (disulfide 2-7 (inferred), Synthetic acylated analogue of human amylin) | 1.19 | 5170 | 17.3 | 89600 |
